Assay results taken from patent US20220112288A1 (published 2022).

What was measured:
[1] = molecular target: T1, human CD4 on cells (SKW3 cells; human PBMCs) (human, UniProt P01730 26-458); assay: FACS confirmation, supernatant on human PBMCs, anti-mFc 647, CD4+ gate
T1 construct: whole, on cells; SKW3 CD4 knockout cells served as the negative cell line for the WT vs KO ratios; also called hCD4; SKW3 WT

[2] = molecular target: T1, human CD4 on cells (SKW3 cells; human …); assay: FACS confirmation, supernatant on SKW3 WT cells, anti-mFc 647 (Bkrd gMFI = 3300)
[3] = molecular target: T1, human CD4 on cells (SKW3 cells; human …); assay: FACS confirmation, supernatant on human PBMCs, anti-mFc 647, percent of viable cells
[4] = molecular target: T1, human CD4 on cells (SKW3 cells; human …); assay: FACS confirmation, supernatant on SKW3 WT cells, anti-hu Kappa FITC (Bkrd gMFI = 2500)
[5] = molecular target: T1, human CD4 on cells (SKW3 cells; human …); assay: FACS primary screen, non-clonal hybridoma supernatant; SKW3 WT vs SKW3 CD4 KO cells, anti-mFc-647
[6] = molecular target: T1, human CD4 on cells (SKW3 cells; human …); assay: SKW3 FACS binning; competitor OKT4-A488 added after supernatant (background 2163, max binding 8200)
[7] = molecular target: T1, human CD4 on cells (SKW3 cells; human …); assay: FACS primary screen, non-clonal hybridoma supernatant; SKW3 WT vs SKW3 CD4 KO cells, anti-hKappa-FITC
[8] = molecular target: T1, human CD4 on cells (SKW3 cells; human …); assay: SKW3 FACS binning; competitor RPA-T4-PE-Dazzle 594 added after supernatant (background 783, max binding 15000)
huCD4-HIS = molecular target: T2, huCD4-HIS (human, UniProt P01730 26-390, limits assumed); assay: ELISA binning; competitor Ibalizumab, 100 ng/mL huCD4-HIS, anti-HIS HRP detection (background 45, max binding 3000000)
T2 construct: Named only in the head of the ELISA binning column; not shown: HIS tag

[9] = molecular target: T1, human CD4 on cells (SKW3 cells; human …); assay: SKW3 FACS binning; competitor OKT4a added after supernatant, anti-hu A647 secondary (background 5000, max binding 35000)
[10] = molecular target: T3, human CD8 on human pan T cells (CD4-negative population) (human, UniProt P01732 22-235; P10966 22-210); assay: flow cytometry, 20 nM antibody on human pan T cells, A647 anti-human IgG Fc; geomean ratio in CD4-negative population
T3 construct: whole, on cells; Target is CD8 as it stands on primary human pan T cells
T3 sequence (P01732 22-235, chain 1 of 2): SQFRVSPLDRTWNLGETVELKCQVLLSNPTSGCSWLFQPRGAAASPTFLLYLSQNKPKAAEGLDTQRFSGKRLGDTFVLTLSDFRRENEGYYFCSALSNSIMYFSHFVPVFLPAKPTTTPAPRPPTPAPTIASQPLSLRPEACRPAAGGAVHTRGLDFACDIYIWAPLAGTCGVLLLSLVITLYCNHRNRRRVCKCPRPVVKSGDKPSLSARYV
T3 sequence (P10966 22-210, chain 2 of 2): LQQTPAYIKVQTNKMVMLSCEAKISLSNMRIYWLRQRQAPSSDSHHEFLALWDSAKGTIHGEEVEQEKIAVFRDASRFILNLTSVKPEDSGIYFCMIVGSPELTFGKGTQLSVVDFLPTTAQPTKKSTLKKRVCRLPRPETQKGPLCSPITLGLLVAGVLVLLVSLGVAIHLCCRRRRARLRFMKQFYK

Row | Binder | CD4+ gate RL1 Binding [1] | gMFI [2] [gMFI] | CD4+ Percent Bound of Viable [3] [%] | gMFI [4] [gMFI] | SKW3 WT vs KO anti-mFc-647 [5] [fold] | OKT4 A488 signal in binning [6] | SKW3 WT vs KO anti-hKappa-FITC [7] [fold] | RPA-T4-PE-Dazzle 594 signal in binning [8] | Ibalizumab ELISA binning signal (huCD4-HIS) | OKT4a anti-hu A647 signal in binning [9] | Cell Binding to Human PanT Signal/Background (of CD4 negative population) [10] [signal/background]
1 | 75110_08A13A (antibody, V domains shown, Tested as non-clonal hybridoma supernatant (AlivaMab Mouse Kappa), detected with anti-mouse Fc and anti-human kappa) VH: EVQLVESGGGLVQPGGSLRLSCAASGFIFSSYWMSWVRQAPGKGLEWVANIKQDGSEKYYMDSVKGRFTISRDNAKNSLYLQMNSLRAEDTAVYYCARDNSYYYYGMDVWGQGTTVTVSS VL: AIQMTQSPSSLSASVGDRVTITCRASQGIRDDLGWYQQKPGKAPKLLIFAASSLQSGVPSSFSGSGSGTDFTLTISSLQPEDFATYYCLHHYNYPYTFGQGTKLEIK | 258000 | 9180 | 29 | 3140 | 2.7 | 7980 | 1 | 13300 | 230000 | 42000 | –
2 | 75110_01C18A (antibody, V domains shown, Tested as non-clonal hybridoma supernatant (AlivaMab Mouse Kappa), detected with anti-mouse Fc and anti-human kappa) VH: EVQLVESGGGLIQPGGSLRLSCAASGFTVSSNYMNWVRQAPGKGLEWVSVIYAGDNTYSADSVKGRFTISRDNSNNTLCLQMNSLRAEDTAVYYCAREGGTTGAFDIWGQGTMVTVSS VL: DIQMTQSPSSVSASVGDRVTITCRASQGINSWLAWYQQKPGKAPKLLIYAASSLQSGVPSRFSGSGSGTDFTLTISSLQPEDFATYYCQQGNSFPYTFGQGTKLEIK | 308000 | 34900 | 31 | 6530 | 14.7 | 9490 | 3.7 | 16500 | 1.78e+06 | 36200 | –
3 | 75110_02E22A (antibody, V domains shown, Tested as non-clonal hybridoma supernatant (AlivaMab Mouse Kappa), detected with anti-mouse Fc and anti-human kappa) VH: QVQLQESGPGLVKPSETLSLTCTVSGGSISSFYWSWIRQPAGKGLEWIGRIYTSGSTNYNPSLKSRVTMSVDTSKNQFSLKLSSVTAADTAVYYCARELEKRNYYGMDVWGQGTTVTVSS VL: DIQMTQSPSSLSASVGDRVTITCQASHDISNYLNWYQQKPGKAPKLLIFDASTLETGVPSRFSGSGSGTYFTFTIRSLQPEDIATYYCQQYDSLPLTFGGGTKVEIK | 276000 | 17300 | 31 | 4280 | 4.7 | 8480 | 1.6 | 15300 | 1.86e+06 | 41900 | –
4 | 75110_02K11A (antibody, V domains shown, Tested as non-clonal hybridoma supernatant (AlivaMab Mouse Kappa), detected with anti-mouse Fc and anti-human kappa) VH: QVQLQESGPGLVKPSQTLSLTCTVSGGSISSGFYYWTWIRQHPGKGLEWIGYISYSGNTYYNPSFKSRLTISVDTSKSQFSLKLSSVTAADTAVYYCARDRPSNFDAFDIWGQGTMVTVSS VL: not shown | 296000 | 24800 | 29 | 6660 | 10.3 | 8730 | 3.3 | 15800 | 1.99e+06 | 32200 | –
5 | 75110_03I23A (antibody, V domains shown, Tested as non-clonal hybridoma supernatant (AlivaMab Mouse Kappa), detected with anti-mouse Fc and anti-human kappa) VH: QVQLQESGPGLVKPSETLSLTCTASGGSITSYYWNWIRQPAGKGLEWIGRIYTSGSTNYNPSLKSRVTMSVDTSKNQFSLKLSSVTAADTAVYYCARDPGYSDAFNIWGQGTMVTVSS VL: not shown | 241000 | 13800 | 28 | 5140 | 4.1 | 9920 | 1.9 | 14000 | 1.26e+06 | 15900 | –
6 | 75110_04D20A (antibody, V domains shown, Tested as non-clonal hybridoma supernatant (AlivaMab Mouse Kappa), detected with anti-mouse Fc and anti-human kappa) VH: QVQLQESGPGLVKPSETLSLTCTVSNGSISDYYWSWIRQPAGKGLEWIGRIYTSGSTNYNPSLKSRITMSVDTSKNQFSLELSSVTAADTAVYYCARELERYYFYGVDVWGQGTTVTVSS VL: not shown | 174000 | 21900 | 28 | 6790 | 4.5 | 7370 | 2.3 | 17100 | 2.11e+06 | 29200 | –
7 | 75110_04H17A (antibody, V domains shown, Tested as non-clonal hybridoma supernatant (AlivaMab Mouse Kappa), detected with anti-mouse Fc and anti-human kappa) VH: QVQLQESGPGLVKPSETLSLTCTVSGGSISTYYWSWIRQSAGKGLEWIGRIYTSERPNYNPSLKSRVTMSVDTSKNQFSLKLNSVSAADTAVYYCARELERPYYYGMDVWGQGTTVTVSS VL: DVQMTQSPSSLSASVGGRVTITCQASQDISNYLNWYQQKPGKAPKLLIYYASNLETGVPSRFSGSGSGTDFTFTISSLQPEDFATYYCQQYDNLPLTFGGGTKVEIK | 302000 | 27200 | 30 | 7430 | 2.9 | 9440 | 1.6 | 16800 | 1.89e+06 | 34000 | –
8 | 75110_05E05A (antibody, V domains shown, Tested as non-clonal hybridoma supernatant (AlivaMab Mouse Kappa), detected with anti-mouse Fc and anti-human kappa) VH: QVQLQESGPGLVKPSETLSLTCTVSGGSIGSYYWSWIRQPAGKGLEWIGRIYTSGSTNYNPSLKSRVTMSFDTSKNQFSLKLNSVTAADTAVYYCATDGGVGDSLDYWGQGTLVTVSS VL: DIVMTQTPLSLPVTPGEPASISCRSSQSLLDSDDGNTYLDWYLQKPGQSPQLLIYTLSYRASGVPDRFSGSGSGTDFTLKISRVEAEDVGVYYCMQHIEFPFTFGPGTKVDIK | 227000 | 38800 | 28 | 8320 | 9.4 | 9100 | 3.2 | 16500 | 1.64e+06 | 35500 | –
9 | CD8B324 (antibody, human IgG1, kappa, V domains shown, Full-length human IgG1, kappa) VH: QVQLQQPGADLVKPGASVKLSCKASGYTSTSHWIHWVKQRPGQGLEWIGNIYPGSSSTNYNEKFKRMATLTVDTSSSTVYMVLSSLTSDDSAVYYCARHSPGHRDYAMDYWGLGTSVTVSS VL: DIVMTQSQKFMPTTVGDRVSITCKASQNVGTAVAWYQQKPGQSPKLLIASASNRYTGVPDRFTGSGSGTDFTLTISTMQSEDLADYFCQQYSTYPLTFGAGTKLEMKR | – | – | – | – | – | – | – | – | – | – | 1610
10 | CD8B337 (antibody, human IgG1, kappa, V domains shown, Full-length human IgG1, kappa) VH: QVTLKESGPGKVQPSQTLSLTCSFSGFSLSTSGMGVSWIRKPSGKGLEWLAHIFWDDDRRYKSSLKSRLTISKDTSSNQVFLMITSVDTADSATYYCARRVGYGDYAYFDVWGAGTTVTVSS VL: DIQMTQYPASLSVSVGETVTITCRASENIYSDLAWYQQKQGKSPQLLVYAATNLADGVPSRFSGSGSGTQYSLKINSLQSEDFGNYYCQHFWGTPWTFGGGTKLEIKR | – | – | – | – | – | – | – | – | – | – | 1980
11 | CD8B366 (antibody, human IgG1, kappa, V domains shown, Full-length human IgG1, kappa) VH: EVQLQQSGPELVRPGASVKLSCTASGFNIKDDYIHWVKQRPEQGLEWIGRIDPANGNPRYAPKFQDKATLTADTSSNTAYLQLSSLTSEDTAVYYCARDDEGYYYFDVWGAGTSVTVSS VL: DIKMTQSPSYLAASPGETITINCRASKSISKYLAWYQEKPGKTNKVLIYSGSTLQSGIPSRFSGSGSGTDFTLTISSLEPEDFAIYYCQQHNEYPLTFGDGTRLEIKR | – | – | – | – | – | – | – | – | – | – | 318
